The experiment addresses T1, synthetic peptide comprising the epitope II region (residues 434-446) of HCV E2, strain H77 (Hepatitis C virus, strain H77).
T1 chain: NTGWLAGLFYQHK
The experiment is described as follows: crystal structure; Fab 10 mg/ml + epitope II peptide (0.9 mg/ml for HC84-1, 1.5 mg/ml for HC84-27), complex formed overnight at 277 K; crystals at 293 K, hanging drop, 10 mM TRIS pH 8.0, 150 mM NaCl. As to conditions: both partners purified.

B1: Fab fragment of human monoclonal antibody HC84-27 (Fab, V domains shown)
VH: QVTLKESGAEVKKPGSSVKVSCEASGGTLSNYVITWVRQAPGQGLEWMGGFIPTFRTAMYAQGFQGRVTITADESTSIAYMELTNLRSEDTAVYYCARGPLSRGYYDYWGQGTLVTVSS
VL: SYVLTQPPSVSVSPGQTARITCSGDKLGDKYASWYQQKPGQSPVLVIYQDNKRPSEIPARFSGSNSGNTATLTISGAQAMDEADYYCQAWDSNTGVFGTGTKLTVL
As for B1, the binding result is given as “binds”.

(Values after article PMC3656090 (PLoS Pathogens, 2013).)
